According to the domain aggregation screens of Martell et al. (2025):

Assay: soluble fraction after stress (log2 fold change); higher = more stays soluble; pooled small domains, quantitative proteomics
Conditions: stress: 75 degC
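Also: 20 min heating vs room temperature control held 20 min.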

Sequence	soluble fraction (log2)
HMGQHSAELKLHPQDLGQVTISMKVEDNQAQLQMVSGHGHVRAALEAALPQLRSQLADSGIQLTQSSIS	-0.198
HMGQISDEETLKTVASRIIDANPDEARKYRSGKTGLLGFFVGQVMKATQGEANPKLASRIVKELLE	-0.15
HMGQLIVTIPNFERRPAEQAIQKLEELGLVPEEKQIYHDDIPAGSVIYTDPSKDSQVNAGTKVYVYVSLG	-0.311
HMGQMGHAVVAKTDLAVGTPLTRDLVAVREVPVEWLHSSAITPEQFERAAGAVLAQPARGGEPLVWSQLEE	0.111
HMGQPRPLTAEDFDFLSDDEIAEMRKALSNGEMLRLRELIAQIGEKRPFLAERLLVLAKQYNYEDLSRLLE	-0.472
HMGQQPPVTEIYKNHDGNKDGLLEAGEVTGSRYARQFPRWDVNGDQKVSPQEVIAFRKRFGIAADGTLL	0.0193
HMGQQTVEPLSRRELEVLSLLAKGLSNQQIADRLVISVRTVKKHVENIHGKLGVQSRTQAVARARELGLV	-1.24
HMGQTYTITINPTPADAKVIIDGVATNSVEAIDGRTLIWSVSKPGYLTKSGNYTVTGKNETLNIVLKEDPD	0.163
HMGQVLEGVFRRKANGKNAFIPDGGGEPILVAERNSAHAMDGDRVKATLLARRKHHVREAQVTEILKRSSK	-0.258
HMGQVSDENQLNKVIDEVIKNYPIQVEQFKAGKEPILQFLKGMVMKATEGSADPAVAEKLLRKKL	0.0979
HMGQYLDAATVAAVYHAYHARNWTQATLAKELKVARPTLSNVLNGREAPSVELAARIRAFLGSPEP	-3.16
HMGRAAEETETFRTQGELDARIKELQGQMRDAAANLEFERAAGLRDTLKRLRTRGLGLSASP	0.0633
HMGRENGTVKWFNTSKGFGFITRDDGGDVFVHFRSIQGEGHRALQEGQRVSYVVANRDKGLQAEDVTILN	-0.277
HMGRKRLADYGLNDTEQKIVRKIADGLSNREIAQALYLSEGTVKNYITDILGKLELRDRTQIAIFYLREIG	-0.941
HMGRLTTKIVLYDRIENIVPERRKELVADIEKRIGVKVEVLEIGHVDFVRDAAWLKVSYYLAPGE	-2.21
HMGRNSTPKEPLKKFEVSPITEKEVRILDGRFGPYITDGATNVTVPKTITIEEITFERALDMLAEKAAKGP	0.0521
HMGRPQISDELRNAIIEVAKDNRDWGYIRIQGQLKYLGYRVSTATIGKVLKKAGLEPQPDRRRK	-1.92
HMGRPWRIGDVVNVSRPTGDGGGFTKGLITRIYPTTVQVTWNPDLQHARPWTTMEKKQYLIFVYHDDE	-3.09
HMGRQTITLPDFSGQDLEQVKARLTEWGLVPEEKSVFSDSVPLGSVVRTVPAEGDEVSVGDTVTVYKSLGR	0.19
HMGRRDLSWQPAAGGVSIDGLKAGEAWTLFGLNGRILKQGYAPEGQMSLAVNAGLFVLRGAESGVIRIAVA	-1.38
HMGRSYTIKSGDTLWAIATRYYGNGAQYSKIYNANKGTIESVAKSRGFRSSQNGHWIFPGTSITI	-0.722
HMGRTITVGIAEDADIKDIAKMLEEKGLISDYRLFVVQELLSAQHDKIKPGIYDLSTDMKAEEMLEILAG	-0.248
HMGRTKEEIFNILKERIVTLQYEPGKILNEIELSEEFEVSRTPIRTVFQQLEAVKLVSIVPRYGVQVA	-1.15
HMGRYATVPDVVGSTPEVARELIRSEGLRYVLSEETVYSDSDTGTVGRTDPESGTRMSADDEVVVYLS	0.0649
HMGRYVIQIASFSSKNNAIEAADKLGGFVVQSGRFYRVRTGPFATRGEADAALASARRVGYRDAFIDTS	-1.59
HMGSAIAHAIASLPDRYRELLLLKYDTGYSEKEIAQLLGMTEANVKKTIQRAKAKLQTLLDEMEA	-1.43

Sequence	soluble fraction (log2)
HMGSAKAQLYDLMNAHQVTRNQIQDIVAEKGYFPAGTPIENYPDDFVKGVLVGAWDQVHKAILDKEI	0.326
HMGSEISLNAFNIPKGSVSVTAGGTKLVENQDYTVDYTLGRIKILNEGILNSGVPIQVNFENNTLFN	-0.0124
HMGSEYILTIIPTPADATVFINGVKKNSASGVNGQILSWEVTKEGYIPQSGTFTINGKNETIEVVLQPQT	0.122
HMGSFFSKATAPVRTTGGDGLYKHGSIWFNTSTGRLFVYIPDDRYTGLLDTHNGDIGYWVDVS	-2.53
HMGSFGAMLKRNRKLAGLTQEQLAEKLDVSTVAVQNWESGKNQIRSEKLTKLSYLFNIPLETLIHEMLIS	-1.12
HMGSFISADEALAKALSHAGLDQSAIRELEMDSELDDDVPHYSIDFKSGNLEYEYEISATDGSVLKFEQD	0.118
HMGSKEQELVILNNILERQLQAINLQKSAAGPMVNLRNVHNTLTKLVEAAGLKNVETYFTDPVIGAAQ	-0.0941
HMGSNTLEDAYKVLGITPDATDDEVRKAYKKMVIQHHPDKVANLGEDVKKAATIKLQEINNAKEIIFKARN	0.0129
HMGSQSYVAIVNERFKESDIVELGGSVGSRTGDIITLHFRNSSPNELKNITGIVYLQVANKVTPKL	-1.26
HMGSTDTLEDALEAAEKISYPVIIKATAGGGGRGMKVASSLEELKKVYHTTKLEAKNAFGNDQVYIEKYL	0.162
HMGSTYGISRVDNETSRTHGWLVTIQRRGVIYRKHFSDGVFGGKQRSFAAAKEYRDEVIAAHP	-2.68
HMGSVVATLRKLIIDGHYPAGTRLAEIPVANALGVSRTPVRLAFRTLQQEGLLQTVGKRGIVVRAF	-1.28
HMGSWDDFFNAIRLDNPNTLQALLQRGFDPNTVDQQGTPALMRALQEQSYRAAEVLADHPQI	-0.603
HMGTAGLSPWHKIAVLMIALGPEGASELMRHFGEDEVEQVVQAIADLKNVPSELQDAVLLEMEGALQEG	0.00911
HMGTDVFIMTGGTRKRGATWSYYFDLGKIDGKRQKKEKGGFKTKKEAETALAKAINEYNNAGA	-0.506
HMGTFIATVEANSLDIYKSMSSNETIGKANKGEVFQILEDMGSGYARVSYNDVEGYLSIRDGDATIEE	0.0208
HMGTGADQVSWKTGDKVTHKKWGEGTVVKVSGSGNDKELDIAFPQQGVKRLLASFAPIKKVT	-0.0162
HMGTGQTNEKLAVLTNIQKTQEQILLTLGAKNPLVNLKQYRETLAKILSLSGYKNSNEFFLDPM	-0.184
HMGTGTYQVWSANGLGVRMRSGPGTGYRILAVYSVGTSVTVLQKGAYWSYIRVGSRTGYMMNQFLVSG	0.609
HMGTGVEQGKQYRTLKRDFDGASGIKVNGDFYRLRTSDTGMTELPAGTEVTFERFDGTTAVVHT	0.0416
HMGTHPGIDSGIISDILALKKELPTRSAAKIITMLTLAGKMEENSIHVKTVNRILYQYGYTRDTLS	-1.92
HMGTITKRTNPSGAVVWRAQIRINKADMPTYSESKTFSKKSLATEWLKRREAEIEANPDLIL	-0.929
HMGTKDVNAAPSAVGRTYDEAIEILNGYKAGYLEEYSDTVPKGTVISQSVQDGQVVIVVSLGPKPS	-0.136
HMGTKVGAPLPGTITEVKVKVGDTVKAGDAVIILEAMKMQNNIEAEVSGTVSSVLVKEGDTVMEGDALITI	-0.0573
HMGTLNLSQAYREWGMAEIEANRDYYGPVRFDDIAFQMSPAGQQLQARFVASYADRLHDAIEGEL	-0.364
HMGTLRPKGTVVFANLPIAADAKEGDMYNISDQFTTTASFKEGAGNVIPAGSNVYRTDDGFWDVL	0.783

Sequence	soluble fraction (log2)
HMGTPEQSAQFEQVLEELKNVPGPVMKAMQRAQDIYGYLPIEIQSRIGQAFGVSLEEVYGIATFYSQFNL	-2.55
HMGTQKVQVVNGPINVRSGPGPTFEKIGMVEDQAVYQVVSKKDDWFQISLPGNKTAWVAGWLVKEIK	-0.035
HMGTRHPLPYAFAKAHTVLLEDDGDRLLLHAAENSGPSALGEILRLYDVDALERETASTLANRIAVAYAG	0.175
HMGTSGLTIPRFVSLASGTVHMRAGPGVRYPITWIYKRLGTPLMVMAEHEFWRKVRDAEGTEGWMHRSLLS	0.0559
HMGTSIMIIIVKPETKKERVNDLIHWIESQNLRTHLSTGDYSTIIGVIGDTSKLDSELIRGLDIVENVKRV	-2.18
HMGTSMDPPVIIVSDGKLIQKGLEVSGLKKQWLYDLIDRKHMKISDIFLLTADKTGKYNLIKRS	-0.0253
HMGTSQSAVKAILAQLISDENKQKPYSDEALSRLLQQQGIDIARRTVAKYREALNIPPAHQRK	0.26
HMGTSRVQSILFDQSQWTINRAVHWLNTHHFISTKIDKTDKYLRFRQFDPNPDSHHATKRTSQGITFILE	-4.37
HMGTTIAMSKLKQVLRWKEEGYSNRKIAQLVGLNKETVNNYISRANADSLSQKELLQLDDFVLDIRLRG	-1.76
HMGTTTGKVNATGVNFRTGPSTSYSSMGKLGIDTAVTILGKSGDWYQVKVNSTGKTGYVFAKYITITSVV	-1.95
HMGTVIGMGRITAGGVNFRETEGGGVIEKLERDTLVEVLTVPSVIDTTHWYQVRYNNRTGYVQAPFVQLLG	-1.7
HMGTVKWFNATKGFGFIVPSDGGKDVFVHITAVQKAGLQGLNEGQKVSYEVAMERGKAAATNLR	-0.782
HMGTVRFYNKERGFGFVVSDDGESVFLPAKALPDGVSDLSPGTRVDYGAALGKKGSQ	0.0973
HMGVAAPMPGTITDVRVKVGDRVQPRTVVMMLEAMKMENEIFAGRAGVVSQVAVEKGASVNTGDLLISIDP	-0.311
HMGVAASEVHREKKESSLQWRQSYNVATDQRRQGKTYKEITEFLNGAELKNSKGGTWSISGVRKMLM	0.0165
HMGVARGQAQVTTRQHVVQPGETLYQISKQYGVTVAEILRYNADIEDNTVKVGQTLQIPTPLP	≥ 1.04
HMGVDMAPESIVGKKGVAATELRPAGKVEIHGQVYDAVSVGMFIKRGTGVKVVRYEAAQIYVEPE	-0.544
HMGVEALTPRQREVLALMAQGRSNGWIAAELGLSEKAIVQHTSNIYDMLGLAVDADDHRRVLAVIHYLT	-1.19
HMGVENDGYVLPRELKKGDTVLIADLGKEATVLSPVDRNGNVEVLAGAAKTRVKLKNLRLIE	0.0345
HMGVEVPRGDGSTVVRVRAGSSLADFAERIGADPAALITVLFRMGEMATVNQSLDEDTFKLLGAELGYDVQ	-0.704
HMGVGIAEAMKHVADEDYGDLSSEFQRIFSAVDGGSTLGDAVRAQMRATSSAGLRRTLSVLAMSVE	0.553
HMGVGTTDERLAVLNQIASRQTEALEKLGPNNPLVGLGQIRNTLSKMLEISGYPDSNQFFKQVPLDYEPPP	0.156
HMGVIDTLSGPQKAAAILVAIGRPSASRLLKHFNAEDLRKLAGHARTLEPISPLDFEHLVKQFEDSFAEG	-0.874
HMGVIGADIRALRVSRGWTLSDLAEALDRSVGWLSQVERDVSEPALADIRRIAGIFDLPVSFFFSD	-2.64
HMGVLDFSAQLLKHLEMNGGQTPLGDKSPAEEIYAVFGVSKKVFKKAVGDLYRKRLIEISSNGIRMTS	-2.14
